In patent US11180770B2, “HPPD variants and methods of use” (BASF Agricultural Solutions Seed US LLC, priority 2017, dated 2021):
Numbering of substitutions follows the chain as printed.

B1: SEQ ID NO:2 (protein)
chain: MADLYENPMGLMGFEFIEFASPTPGTLEPIFEIMGFTKVATHRSKNVHLYRQGEINLILNNEPNSIASYFAAEHGPSVCGMAFRVKDSQKAYNRALELGAQPIHIDTGPMELNLPAIKGIGGAPLYLIDRFGEGSSIYDIDFVYLEGVERNPVGAGLKVIDHLTHNVYRGRMVYWANFYEKLFNFREARYFDIKGEYTGLTSKAMSAPDGMIRIPLNEESSKGAGQIEEFLMQFNGEGIQHVAFLTDDLVKTWDALKKIGMRFMTAPPDTYYEMLEGRLPDHGEPVDQLQARGILLDGSSVEGDKRLLLQIFSETLMGPVFFEFIQRKGDDGFGPWNFAQLFESIERDQVRRGVLTAD
modifications: mutant HPPD polypeptide
B2: SEQ ID NO:71 (protein)
chain: B1 chain with P215L, W336F, A339K, Q340E
modifications: mutant HPPD polypeptide
B3: SEQ ID NO:3 (protein)
chain: B1 chain with P268A, W336D, N337S, A339K, Q340V
modifications: mutant HPPD polypeptide
B4: SEQ ID NO: 6: mutant PfHPPD: 268A 270N 335P 336D 337S 340V (protein)
chain: B1 chain with P268A, T270N, W336D, N337S, A339K, Q340V
modifications: mutant HPPD polypeptide
notes: mutant PfHPPD: 268A 270N 335P 336D 337S 340V
B5: SEQ ID NO: 24: mutant PfHPPD: 268A 335P 336H 337S 340V (protein)
chain: B1 chain with P268A, W336H, N337S, A339K, Q340V
modifications: mutant HPPD polypeptide
notes: mutant PfHPPD: 268A 335P 336H 337S 340V
B6: SEQ ID NO: 67: mutant PfHPPD: 213K 268A 270S 315R 335P 336H 337S 340V 344Q 345M (protein)
chain: B1 chain with R213K, P268A, T270S, T315R, W336H, N337S, A339K, Q340V, S344Q, I345M
modifications: mutant HPPD polypeptide
notes: mutant PfHPPD: 213K 268A 270S 315R 335P 336H 337S 340V 344Q 345M
B7: 46 (protein)
chain: B1 chain with P268G, T270N, W336H, N337S, A339K, Q340V, S344Q, I345V
modifications: mutant HPPD polypeptide
B8: 47 (protein)
chain: B1 chain with P268A, T270N, W336H, N337S, A339K, Q340V, S344Q, I345M
modifications: mutant HPPD polypeptide
B9: 48 (protein)
chain: B1 chain with P268G, T270N, W336H, N337S, A339K, Q340V, S344Q, I345M
modifications: mutant HPPD polypeptide
B10: 49 (protein)
chain: B1 chain with T270N, W336H, N337S, A339K, Q340V, S344Q, I345M
modifications: mutant HPPD polypeptide
B11: 50 (protein)
chain: B1 chain with P268S, T270N, W336H, N337S, A339K, Q340V, S344Q, I345M
modifications: mutant HPPD polypeptide
B12: 51 (protein)
chain: B1 chain with P268A, T270N, W336D, N337S, A339K, Q340V, I345K
modifications: mutant HPPD polypeptide
B13: 52 (protein)
chain: B1 chain with P268A, T270N, W336D, N337S, A339K, Q340V, S344Q
modifications: mutant HPPD polypeptide
B14: 53 (protein)
chain: B1 chain with P268A, T270N, W336D, N337S, A339K, Q340V, S344Q, I345V
modifications: mutant HPPD polypeptide
B15: 54 (protein)
chain: B1 chain with P268A, T270N, W336D, N337S, A339K, Q340V, S344Q, I345K
modifications: mutant HPPD polypeptide
B16: 55 (protein)
chain: B1 chain with P268A, T270N, W336H, N337S, A339K, Q340V, I345K
modifications: mutant HPPD polypeptide
B17: 56 (protein)
chain: B1 chain with P268A, T270N, W336H, N337S, A339K, Q340V, S344Q
modifications: mutant HPPD polypeptide
B18: 57 (protein)
chain: B1 chain with P268A, T270N, W336H, N337S, A339K, Q340V, S344Q, I345K
modifications: mutant HPPD polypeptide
B19: 58 (protein)
chain: B1 chain with P268A, T270S, W336D, N337S, A339K, Q340V
modifications: mutant HPPD polypeptide
B20: 59 (protein)
chain: B1 chain with P268A, T270S, W336D, N337S, A339K, Q340V, S344Q, I345K
modifications: mutant HPPD polypeptide
B21: 60 (protein)
chain: B1 chain with M172I, V173D, P268A, T270S, W336D, N337S, A339K, Q340V, I345K
modifications: mutant HPPD polypeptide
B22: 61 (protein)
chain: B1 chain with P268A, T270S, W336H, N337S, A339K, Q340V
modifications: mutant HPPD polypeptide
B23: 62 (protein)
chain: B1 chain with P268A, T270S, W336H, N337S, A339K, Q340V, I345M
modifications: mutant HPPD polypeptide
B24: 63 (protein)
chain: B1 chain with R213K, P215A, P268A, T270S, W336H, N337S, A339K, Q340V, S344Q
modifications: mutant HPPD polypeptide

Tested on: HPPD polypeptides
Test: coupled HPPD activity assay: turnover and residual turnover in crude extracts
Format: biochemical, Pseudomonas fluorescens
Conditions: for Residual turnover: presence of 100 μM Cmpd. 1, changes in absorbance (OD) at 320 nm; for Residual turnover / Turnover: high substrate concentration; for turnover / residual turnover in the presence of Cmpd. 1 compared with a reference HPPD polypeptide, in words: comparison with the reference or parent polypeptide; for Residual turnover [%]: 100 μM Cmpd. 1, signal change with inhibitor divided by signal change without inhibitor; for Turnover: absence of Cmpd. 1, kinetic changes in absorbance (OD) at 320 nm, 30 min
Procedure: The activity of HPPD polypeptides was determined in absence or presence of HPPD inhibitors using the coupled HPPD activity assay (FIG. 1).
For the determination of the residual activity, the apparent kinetic constant (kapp) of the determined substrate conversion was measured as kinetic changes in absorbance (OD) at 320 nm in a coupled assay, in that homogentisate (HGA) formed by HPPD from HPP is directly converted into the well absorbing molecule maleylacetoacetate (MAA) by a second enzyme homogentisate dioxygenase (HGD), applied in excess uniformly in all assays (see FIG. 1). The measurements were performed in 384 micro titer plates (Greiner Bio-One GmbH, Frickenhausen, Germany) by plate readers (Tecan infinite M1000 or M1000PRO, Tecan, Männedorf, Switzerland). The kcat/kM ratio of an enzymatic activity is proportional to the apparent kinetic constant kapp and is proportional to kcat/kM*[E] ([E]=enzyme concentration). […] As both kapp measurements in the presence and absence of inhibitor were performed by use of the identical enzyme sample, crude or purified, and thereby at the same enzyme concentration, the enzyme concentration eliminates from the calculation of residual activity and the ratio of both kapp directly indicates the change of kM due to the inhibition.
The assay solution used for determination of residual activities in raw HPPD polypeptide samples was composed by 200 mM sodium phosphate (Merck, Darmstadt, Germany, pH 7.0), 5 mM MgCl2 (Merck, Darmstadt, Germany), 20 mM ascorbate (Sigma-Aldrich, St. Louis, USA), 1 mM DTT (Sigma-Aldrich, St. Louis, USA), 0.1% Pluronic F-68 (Sigma-Aldrich, St. Louis, USA), 40 μM FeSO4 (Sigma-Aldrich, St. Louis, USA), about 8 mg/ml purified HGD and 500 μM HPP from a 1 M stock solution in DMSO (Sigma-Aldrich, St. Louis, USA) and equilibrated for 20 min on ice. For every HPPD polypeptide sample two assays were performed in quadruplets, whereby 5 μl of HPPD polypeptide sample were mixed firstly with 5 μl buffer (1×BugBuster®; (Merck, Darmstadt, Germany); in 140 mM Tris, pH 7.8, with 1:25000 diluted BNase®; Qiagen, Hilden, Germany)) or 5 μl inhibitor diluted in the same buffer from a 0.1 M stock solution in DMSO (200 μM resulting in 100 μM in the HPPD polypeptide/inhibitor sample) in the reference and inhibition assay, respectively, and subsequently with 10 μl assay solution. The change in absorbance at 320 nm was followed in 1 min intervals for 30 min. The kapp values were calculated as signal slope over time in the early phase of the kinetic reaction, usually for the first 5-10 minutes of the measurements. Additionally and according to the calculated residual activity, the total conversion, i.e. the absolute change in signal, in the 30 min timeframe was monitored as measure of turnover, and a residual turnover was calculated by dividing the change in signal in the presence of inhibitor by the change in signal in the reference sample without inhibitor.
Residual turnover were determined according to Example 3 by measuring total change in signal in the presence and absence of Cmpd. 1 (2-chloro-3-(methylsulfanyl)-N-(1-methyl-1H-tetrazol-5-yl)-4-(trifluoromethyl)benzamide). For each mutant HPPD polypeptide, the total change in signal without HPPD inhibitor herbicides served for normalization of the total change in signal in the presence of the herbicide.

| Molecule | Residual turnover | turnover / residual turnover in the presence of Cmpd. 1 compared with a reference HPPD polypeptide, in words | Residual turnover [%] | Turnover |
| --- | --- | --- | --- | --- |
| B1 | 0.026 | – | – | – |
| B2 | 0.022 | – | – | – |
| B3 | – | improvement regarding residual turnovers | – | – |
| B4 | – | increase in the absolute turnover and absolute residual turnover | – | – |
| B5 | – | increase in the residual turnover | – | – |
| B6 | – | increase significantly the turnover and the residual turnover | – | – |
| B7 | 0.098 | – | 55 | 0.179 |
| B8 | 0.166 | – | 53 | 0.314 |
| B9 | 0.117 | – | 52 | 0.225 |
| B10 | 0.103 | – | 33 | 0.316 |
| B11 | 0.138 | – | 44 | 0.315 |
| B12 | 0.074 | – | 56 | 0.131 |
| B13 | 0.088 | – | 47 | 0.189 |
| B14 | 0.107 | – | 54 | 0.199 |
| B15 | 0.059 | – | 66 | 0.089 |
| B16 | 0.095 | – | 50 | 0.189 |
| B17 | 0.086 | – | 57 | 0.152 |
| B18 | 0.099 | – | 59 | 0.167 |
| B19 | 0.065 | – | 45 | 0.144 |
| B20 | 0.074 | – | 56 | 0.131 |
| B21 | 0.046 | – | 45 | 0.103 |
| B22 | 0.091 | – | 40 | 0.229 |
| B23 | 0.115 | – | 37 | 0.308 |
| B24 | 0.156 | – | 68 | 0.23 |
